Here are results for one molecule from US20070218463A1 (CANAG DIAGNOSTICS, published 2007).

This test addresses T1, Cathepsin L (Calbiochem) (UniProt P07711 114-333, limits assumed).
T1 construct: Bought enzyme
As to the kind of experiment: complex binding, 2 ug SCCA protein mixed with cathepsin, 37 C 30 min, SDS-PAGE. Here is the method:
Complex binding of SCCA to substrates was performed by mixing 2 μg of SCCA-protein with 0.5 μg of Cathepsin G (Biodesign Int.) or 0.5 μg of […] Cathepsin L (Calbiochem) in 1×PBS buffer in a total volume of 4.5 μl. Samples were incubated at 37° C. for 30 minutes. To each sample, 0.5 μl of 10× Complex-buffer (20% SDS, 140 mM Mercaptoethanol, bromophenolblue) was added. Samples were incubated for 3 minutes at 95° C. and analyzed on a 12.5% SDS-PAGE-gel. The SCCA1/A2 fusion protein forms a complex with Cathepsin G but not with Cathepsin L showing that the fusion protein is functional and has the substrate specificity of SCCA2 (FIG. 8).

T1 sequence (P07711 114-333 limits assumed): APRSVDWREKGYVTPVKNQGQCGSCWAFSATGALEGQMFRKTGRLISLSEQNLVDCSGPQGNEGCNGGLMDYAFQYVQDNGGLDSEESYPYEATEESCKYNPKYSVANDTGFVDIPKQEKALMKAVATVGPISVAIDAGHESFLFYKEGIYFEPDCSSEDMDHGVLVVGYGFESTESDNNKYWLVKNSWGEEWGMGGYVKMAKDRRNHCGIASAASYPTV

B1: SCCA1/SCCA2 fusion protein (other)
chain: MNSLSEANTKFMFDLFQQFRKSKENNIFYSPISITSALGMVLLGAKDNTAQQIKKVLHFDQVTENTTGKAATYHVDRSGNVHHQFQKLLTEFNKSTDAYELKIANKLFGEKTYLFLQEYLDAIKKFYQTSVESVDFANAPEESRKKINSWVESQTNEKIKNLIPEGNIGSNTTLVLVNAIYFKGQWEKKFNKEDTKEEKFWPNKNTYKSIQMMRQYTSFHFASLEDVQAKVLEIPYKGKDLSMIVLLPNEIDGLQKLEEKLTAEKLMEWTSLQNMRETCVDLHLPRFKMEESYDLKDTLRTMGMVNIFNGDADLSGMTWSHGLSVSKVLHKAFVEVTEEGVEAAAATAVVVVELSSPSTNEEFCCNHPFLFFIRQNKTNSILFYGRFSSP
notes: Recombinant serpin fusion (exons 2-7 of SCCA1 fused to exon 8 of SCCA2); also called SCCA1/A2; SCCA1/A2 fusion protein
B1: the binding result is “no binding”.
